Laboratory results reported in the DeepSol protein solubility set.

experiment: soluble on expression in E. coli; label from the status in PepcDB or PDB records

Row | Sequence | soluble on expression in E. coli
1 | MGSDKIHHHHHHMKLNRIPVVFILVLQFLSCMRKDEVLSTDPSDRLEFSEDTVFFDTLFSSVGSITKRLLVYNPGKNKIRISSVTLAGGSNSAYSVIVNGLNGPSISDIDIRGNDSIYVLVKVLIDPSNQDLPFLVSDSILFYTNTNRQKVLLSAYGQDAHFFGKESIACDAVWVNDKPYVLYDTLQVNTGCTLTIQPGCKIYFHTAAALNVRGTLIAQGSSSEPLLFASDKLSKTAQDDRGQWGGLIFQSSSSGNVISWATIRNSSTAIKLFPVIDADTIAELSLDHTFLLHASVRLIDAQEVDLAGSNLVLSDCPKALLKHTAGCGVWKHCTFANYSSGFFREETNLVLGSNMGSLKMYVLNSILWGDKSNEVTANNTPSLSLQSCIWRSAYMGTNTNVITSNPLFSKPSAFDFSLTAGSSAIDLCTGVGVPDDIAAGNRDSTPDAGAYEFK | not soluble
2 | MGHHHHHHSHGSHVKVKSFEKERQTEKRVLETELVDHVLQKLRTKVTDERNGREASDNLAVQNLKGSFSNASGLFEIHGATVVPIVSVLAPEKLSASTRRRYETQVQTRLQTSLANLHQKSSEIEILAVDLPKETILQFLSLEWDADEQAFNTTVKQLLSRLPKQRYLKLVCDEIYNIKVEKKVSVLFLYSYRDDYYRILF | not soluble
3 | MARKRIITPEKKELIRNLISEYNITSAKDLQEALKDLLGDTIQNMLEAELDEHLGYEKYESTEEAKSNYRNGYTSKTLKSSVGQVEIDIPRDRNAEFEPKIVPRYKRDISEIENKIIAMYARGMSTREINEQIQEIYGFEVSAEMVSKITDKILPEIEEWQKRPLGEVIR | soluble
4 | MTEYNIGAKIKKLRLAKKLTLQAVARETGFSPALISQIENNNVSPPIATLSKIAKFFDVKISLFFSEDEEEYRYEVVRRGERKVIPRVISRAGTSQGYSYESLSFRKQNKKMEPFLLTVTEKAAEENTYNHDGEEFLFVMKGTAELLLEDERVILEEGDCVYFDSSLKHRLLSRDGSEVQVLAVVTR | not soluble
5 | MTENKSFKESHPLDDFISDKELSNTTIQKEKLTIEQQKQVDTISKQINPLDNEGLLAFGSDLQKQMSQFSHQMLDEVQSKDVGPIGDTLSDLMSKLKSVNPNELNTDKPSMLKRIFSRAKSSINEIFSRMQSVSAQVDRITIQLQKHQTHLTRDIELLDTLYDKNKQYFDDLSLHIIAAQQKKLQLENEKLPQLQQQAQQSTNQMDIQQVSDMQQFIDRLDKRIYDLQLSRQIALQTAPQIRMIQNVNQALAEKIQSSILTSIPLWKNQMAIALTLMRQRNAVAAQRAVTDTTNDLLTANAEMLKQNAIETATENERGIVDLDTLKRTQRNIIETIEETLIIQQHGREERQLAEKELQQLEQDLKSHLVNIKGPNKQS | not soluble
6 | MISNQILQNTIEGIKSISRVDLHVADTDGKIIASTSQLGDEFGHAIISFVNSPADSQSVQEYQFFKVYDESQLELILIAQGTSDDVFMVGKMAAFQIQNLLVAYKERFDKDNFIKNLLLDNLLLVDIYNRSKKLYIDVDARRCVCIIETKNEKDSVALETVRTLFSGNKKDFITAVDEKSIILVKELEEKQGYEDIEKIARTIVDMLNTEAMVKATVAYGTIVKEIKEVSRSYKEARMALDVGKIFFSTKNVIAYNNLGIGRLIYQLPIPLCKMFISEIFEGKSPDEFDEETLTTINKFFENSLNVSETSRQLYIHRNTLVYRLDKLQKSTGLDLRVFEDAITFKIALMVVKYMKYMENTDF | not soluble
7 | MITFRKRVEIEADPAEVFRVISDPWRITEFWKGTRQVIEDGDFYRIRFAFPAWGLMSFHPDAERMTVLTSYLKGPVRGSKVDAVLVSSGKTVLQTEWNVRLSFYLRPFERRIASHFESGADHAINRIKESVEKDKK | not soluble
8 | MTKTRRRGAELENAIYQAARDILNQDGLEQLTFANVAEQAGTSKPVIYRRWRSPLELAIAAIQDQIITENHGQLDEVSLTGQTLSEDLFQVLKRFTVSINTFNQALVITWFHHLDQQANPEVKDLLNAVKKIDAHAIERVCQRAQQRGELRTGTLSCDLQLMPFDWLRYRAFANEPITDATLHLLVDDLLVPAYQHALG | not soluble
9 | MAHHHHHHMGTLEAQTQGPGSMFELSDLPYEGLEPYISSHLLDRHYNGHHKTYVDVLNKLVVGTEFEGLGNESLGDIVVKAHNSGSAGRAIFNNAAQIWNHDFYWQSMKPNGGGNPPEKLREMIEHSFGSVEGFNNAFTTSGLGQFGSGWVWLVYDEDAKALKVVSTANADSPLLTQGQLPLATMDVWEHAYYLDYLNLRKKYIDVFLEHLLNWDFVLGRLEDAGVL | soluble
10 | MQNRKFLTHHEINLLLQSVKQKSCSSRDVCMILLAYFHGLRVSELLSLQLSDLELTTEKIYIQRIKNGFSTVHPLQKEEVIAITNWLNERNSLNVKHFNDNPWLFVSRTGKPLSRQRFYNI | not soluble
11 | MFKVLAEAFASARLRLGAILFSPQSLAFLPAFCLGLYWYGGETALMITALVFPVFFLVARAKLAETVTTSRQDSVLGVMQPDGFQDIVAARFREARAGGLISTVFQIEIDDHTSLVERHGQRAAEVISTTSADRIAAVLRDRDAVTHLDTFKYAVCLEPVRQMDLELCIQLAGRIQAALEEPIALDATAVCITSSVGFCQQTKVLSRSGEAWLAAAGHALREAHLNGPGAIRAYSEKMQQKSEIRAELREEVAQALEKGQIKPWFQPQISTDTGLVTGFEALARWNHPKRGMVPPGAFLTAIEQAGMLEKLAEVMIFHAFTALKAWDSAGVCVPQVGVNFAGPELSNPKLVDKIIWELDRFDLAPERLAVEVLETVVANSPDDTITRNINGLSKLGCRIDLDDFGTGHASISSIRRFSVSRIKIDRSFVIKADRDPEQQRMISAILTMAERLEVETLAEGVESVGEHALLAQLGCDHVQGFGIGKPMPFDQTLDWIASHNAKLQATPQILPNKLRLEHHHHHH | soluble
12 | MATSGFKHLVVVKFKEDTKVDEILKGLENLVSQIDTVKSFEWGEDKESHDMLRQGFTHAFSMTFENKDGYVAFTSHPLHVEFSAAFTAVIDKIVLLDFPVAAVKSSVVATP | soluble
13 | MAVKVKKILISQPQPVAGRSPYYDIAQKHGCEVVFRPFIQVESVSAREFRNQKVNILDHSAIIFTARTAIDHFFSLCEELRVTVPETMKYFCVSESVAVYLQKHIVYRKRKIFFGATGKLEDLLTVISKHNKETYFVPLAEEHKHDLLDMLTAKKVSFSPAIMYRTVSNDFGPDEALDHDMILFFSPSGITALLKNFPKFEQGKTKIGAFGPTTAKAVEEAGLRLDLSAPTEQYPSMAMALEDYLNGK | not soluble
14 | SKDQHLRGFFSDSTSFNILMDMLFIKGKYKSALQVLIEMKNQDVKFTKDTYVLAFAICYKLNSPESFKICTTLREEALLKGEILSRRASCFAVALALNQNEMAKAVSIFSQIMNPESIACINLNIIIHIQSNMLENLIKTLKNAAEGNLSKFVKRHVFSEEVLAKVREKVKDVPALVAKFDEIYGTLHITGQVTTDSLDAVLCHTPRDRKSHTLLLNKRMVSRRTFQPLSQSLLAE | soluble
15 | MSLQGIHTISFVGLGLIGASLMQALKRAAGATGRNIEMIGFDPAFDAADIVAITGECGLDRFEPDPAKLYNADLVVLCAPVVTNIALLDEAKRHIRKDTLVSDVSSTKAEIAAKAQELGIEFIGMHPIAGREQQGYQAASPELLDGRLVILCTECATLETTLATELAGLLRAAGCKPLFMSPEEHDRVYANISHLPQLISTALMAHCRENVEWAGPGFASMARLAGSPWAVWRDIVETNRSNIADEMEAFSALLADVAGEVRGGNFEALESKFREANDLYQRLQERSSEGHHHHHH | soluble
16 | MSLHEFQTDSKNKHKVDVHIGIYAPFSSHSAFIGRNILAAMEMGSERLQSSDIHYSFYTLDQLPKNKNAGLVLQKFIDTHHINVLVTGGKETGLIAAPIAKKNNLIHFSLTNNTEVADGRNNFIVWSPAYDQAKVLVNELKRQQVHHLGIITANQPSSTALTHSVIKQLQSDSHIDVAASEYFEPGNKDFSRLTNRIKRKNADMYLVMASPEDIKLIQEQMEADKQHVPITSIVERATPEVVKVFEGQWYVDSHEMQPDFINEFKQNYLNYPVTEAGYAFDLFQLLNKSIVMAIRTQGSPTTSQEVVHQLHDIANGTGVMGTMVLDSKGSLFTKSEVKTVKNGEIHTVEGHHHHHH | soluble
17 | MNYGFVKVAAAVPRVKVADCKFNSERLEGLITIAEGKGVQILTFPEMCITGYTCGDLFAQQLLLEQAEMALIQILNSTRQLDIISILGMPVVVNSTVINAAVVIQKGKILGVVPKTYLPNYKEFYEQRWFTSALQVSENSVRLCGQIVPMGNNLLFETAETTFGIEICEDLWATVPPSSSLALQGAEIIFNLSADDEGIGKHNYLCSLISQQSARCISGYVFSSSGFGESTTDVVFAGNGLIYENGYLLARSERFCMEEQLIINEIDVECIRAERRVNTTFAANKANCPGLEHHHHHH | not soluble
18 | MVVKFTKSEALHKEALEHIVGGVNSPSRSFKAVGGGAPIAMERGKGAYFWDVDGNKYIDYLAAYGPIITGHAHPHITKAITTAAENGVLYGTPTALEVKFAKMLKEAMPALDKVRFVNSGTEAVMTTIRVARAYTGRTKIMKFAGCYHGHSDLVLVAAGSGPSTLGTPDSAGVPQSIAQEVITVPFNNVETLKEALDKWGHEVAAILVEPIVGNFGIVEPKPGFLEKVNELVHEAGALVIYDEVITAFRFMYGGAQDLLGVTPDLTALGKVIGGGLPIGAYGGKKEIMEQVAPLGPAYQAGTMAGNPASMASGIACLEVLQQEGLYEKLDELGATLEKGILEQAAKHNIDITLNRLKGALTVYFTTNTIEDYDAAQDTDGEMFGKFFKLMLQEGVNLAPSKYEAWFLTTEHTKEDIEYTIEAVGRAFAALADNK | soluble
19 | MGSDKIHHHHHHAACQGKPLPNTAMHSDAPTEWSFNFFTPKALPAVVTFAAILDVDGNDYRFNTLNSTPDLPGVIGEWNDKDRAPVGYWNHVKRPPRHIIFCWDSIIDKKVYETHLTIPKSVLEQMLMPSKYKDYRGRIAWYNRMQIGLAPEGKVAVWLQGSGSESNYRVTPSVLKTVSGNKLDICKDITRSDFSYGYDKDIIDFIKGKHYPYGNW | not soluble
20 | MTARYIAIDWGSTNLRAWLYQGDHCLESRQSEAGVTRLNGKSPAAVLAEVTTDWREENTPVVMAGMVGSNVGWKVAPYLSVPARFSSIGEQLTSVGDNIWIIPGLCVSHDDNHNVMRGEETQLIGARALAPSSLYVMPGTHCKWVQADSQQINDFRTVMTGELHHLLLNHSLIGAGLPPQENSADAFAAGLERGLNAPAILPQLFEVRASHVLGTLPREQVSEFLSGLLIGAEVASMRDYVTHQHAITLVAGTSLTARYQQAFQAMGCDVAAVAGDTAFQAGIRSIAHAVAN | soluble
21 | MSLSSCEVLTSLGERMILIRGLTRVITFDDQERELEDADILIDGPKIVAVGKDLSDRSVSRTIDGRGMIALPGLINSHQHLYEGAMRAIPQLERVTMASWLEGVLTRSAGWWRDGKFGPDVIREVARAVLLESLLGGITTVADQHLFFPGATADSYIDATIEAATDLGIRFHAARSSMTLGKSEGGFCDDLFVEPVDRVVQHCLGLIDQYHEPEPFGMVRIALGPCGVPYDKPELFEAFAQMAADYDVRLHTHFYEPLDAGMSDHLYGMTPWRFLEKHGWASDRVWLAHAVVPPREEIPEFADAGVAIAHLIAPDLRMGWGLAPIREYLDAGITVGFGTTGSASNDGGNLLGDLRLAALAHRPADPNEPEKWLSARELLRMATRGSAECLGRPDLGVLEEGRAADIACWRLDGVDRVGVHDPAIGLIMTGLSDRASLVVVNGQVLVENERPVLADLERIVANTTALIPKNLEGHHHHHH | not soluble
22 | MEENMNIKQLKSKTMLGTVALVSAFSFASTNADANTYNYAVDVDYLASAEEIAQAHPASNTFPLGQCTWGVKEMATWAGNWWGNGGDWAASAASADYTVGTQPRVGSIVCWTDGSYGHVAYVTAVDPVTNKIQVLESNYAGHQWIDNYRGWFDPQNTVTPGVVSYIYPNLEHHHHHH | not soluble
